The text below walks through data of patent publication US20140112919A1, “INTERLEUKIN-10 ANTIBODIES” (MERCK SHARP & DOHME CORP., published 2014).

This experiment concerns the target humanized anti-human IL-10 antibody SCH 708980 (12G8) (Homo sapiens). The experiment in a line: competitive ECLA (IGEN): unlabeled IL-10 titrated against hIL-10-biotin for binding to humanized 12G8-1. The method, then: 96 well Polypropylene plates (Costar, Cat. No. 3365, Fisher Sci. Cat. No. 07200697); assay buffer of 0.1% BSA, 0.05% tween 20, PBS pH 7.5; paramagnetic beads (Streptavidin-Dynabeads, Igen, Inc., Cat. No. 110029); recombinant human IL-10 dimer (hIL-10-dimer); recombinant human IL-10-monomer (hIL-10-mono); recombinant mouse IL-10 (mIL-10); recombinant cyno IL-10 (cyno IL-10); and recombinant hIL-10Ra (hIL-10Ra): FLAG-tagged protein. Ori-Tag labeled anti-FLAG M2 monoclonal antibodies were prepared using Ori-Tag-NHS ester (Igen, Inc. Cat. No. 110034) according to manufacturer's protocol (OriTag label: IgG challenge ratio 8:1). Anti-Flag M2 monoclonal antibodies were purchased from Sigma (Cat. No. F3165). Ori-Tag labeled anti hIgG 1A2 monoclonal antibodies were prepared as above using rat anti hIgG monoclonal antibodies. Ori-Tag labeled anti rat IgG antibodies were prepared as above from polyclonal Goat anti rat IgG (H+L) antibodies (Jackson Immunoresearch Laboratories, Inc. PA, Cat. No. 112-005-143). Biotinylated recombinant human IL-10
1/3 serial dilutions in 50 microliters of the assay buffer were made in 96-well microtiter plate for all unlabeled IL-10 preparations (mIL-10, cyno IL-10, hIL-10 dimer, hIL-10 mono) starting with 3 μg/ml in the first well. […] Percent inhibition of the signal by unlabeled IL-10 preparations was calculated relative to the control samples. […]

Chain of humanized anti-human IL-10 antibody SCH 708980 (12G8) (Homo sapiens) (VH, as listed by the source, chain 1 of 2): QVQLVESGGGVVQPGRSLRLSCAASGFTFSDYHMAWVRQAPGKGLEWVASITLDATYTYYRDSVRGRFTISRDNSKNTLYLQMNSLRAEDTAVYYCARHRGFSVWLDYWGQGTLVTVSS
Chain of humanized anti-human IL-10 antibody SCH 708980 (12G8) (Homo sapiens) (VL, as listed by the source, chain 2 of 2): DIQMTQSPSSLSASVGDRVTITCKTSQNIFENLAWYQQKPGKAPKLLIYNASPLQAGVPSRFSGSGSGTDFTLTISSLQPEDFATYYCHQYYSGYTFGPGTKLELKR

B1: recombinant human IL-10-monomer (ligand)
chain: SPGQGTQSENSCTHFPGNLPNMLRDLRDAFSRVKTFFQMKDQLDNLLLKESLLEDFKGYLGCQALSEMIQFYLEEVMPQAENQDPDIKAHVNSLGENLKTLRLRLRRCHRFLPCENKSKAVEQVKNAFNKLQEKGIYKAMSEFDIFINYIEAYMTMKIRN
What is called IC50 is the concentration needed to halve the response being measured. Read a low IC50 as inhibition by little substance. As to B1, the IC50 amounted to 5.8 nM.
